According to US20120288511A1 (INDIANA UNIVERSITY RESEARCH AND TECHNOLOGY, published 2012):
Read-outs that look alike come from different tables or passages of the source. Non-standard residues stand in square brackets, D forms with d. No end group written: not given here. Aib = CC(C)(N)C(=O)O

Key:
Test in all cases: cell-based or functional assay
[1] = molecular target: T1, glucagon receptor (human, UniProt P47871 26-477)
[2] = molecular target: T2, GLP-1 receptor (human, UniProt P43220 24-463)
[3] = molecular target: T1, glucagon receptor; remark: listed apart in the source
[4] = molecular target: T2, GLP-1 receptor; remark: listed apart in the source
[5] = molecular target: T1, glucagon receptor; remark: listed apart in the source
[6] = molecular target: T2, GLP-1 receptor; remark: listed apart in the source
[7] = molecular target: T1, glucagon receptor; remark: listed apart in the source
[8] = molecular target: T2, GLP-1 receptor; remark: listed apart in the source
[9] = molecular target: T1, glucagon receptor; remark: listed apart in the source
[10] = molecular target: T2, GLP-1 receptor; remark: listed apart in the source
[11] = molecular target: T1, glucagon receptor; remark: listed apart in the source
[12] = molecular target: T2, GLP-1 receptor; remark: listed apart in the source
[13] = molecular target: T1, glucagon receptor; remark: listed apart in the source
[14] = molecular target: T2, GLP-1 receptor; remark: listed apart in the source

T1 sequence (P47871 26-477): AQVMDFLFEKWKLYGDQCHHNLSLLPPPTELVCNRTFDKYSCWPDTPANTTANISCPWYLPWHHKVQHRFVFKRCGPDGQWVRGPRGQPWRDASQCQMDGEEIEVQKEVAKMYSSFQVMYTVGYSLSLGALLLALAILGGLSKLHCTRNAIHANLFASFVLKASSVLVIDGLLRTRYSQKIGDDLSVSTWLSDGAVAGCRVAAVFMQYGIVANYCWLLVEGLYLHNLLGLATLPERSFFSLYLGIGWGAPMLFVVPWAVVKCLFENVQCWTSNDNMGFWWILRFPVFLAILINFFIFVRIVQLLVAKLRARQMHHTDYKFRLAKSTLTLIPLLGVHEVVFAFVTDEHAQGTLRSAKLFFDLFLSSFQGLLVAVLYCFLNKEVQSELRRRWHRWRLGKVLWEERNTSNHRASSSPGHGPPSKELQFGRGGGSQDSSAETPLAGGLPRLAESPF

H[Aib]QGTFTSDYSKYLDEEAVRLFIEWLMNT-NH2 [Glucagon Analog C]
EC50 (cAMP luciferase reporter) [1]: 0.17 nM
EC50 (cAMP luciferase reporter) [2]: 0.006 nM

HSQGTFTSDKSKYLDERAAQDFVQWLLDT-NH2 (not fully specified; also: position 2 Aib or D-Ser) [Glucagon Analog 51]
% Relative Activity vs native glucagon [3]: 314%
EC50 (cAMP luciferase reporter) [3]: 0.0035 nM
% Relative Activity vs native GLP-1 [4]: 949%
EC50 (cAMP luciferase reporter) [4]: 0.0039 nM
EC50 (cAMP luciferase reporter) [5]: 0.0035 nM
EC50 (cAMP luciferase reporter) [6]: 0.0039 nM
% Relative Activity vs native glucagon [7]: 314%
EC50 (cAMP luciferase reporter) [7]: 0.004 nM
% Relative Activity vs native GLP-1 [8]: 949%
EC50 (cAMP luciferase reporter) [8]: 0.004 nM

H[Aib]QGTFTSDYSKYLDEQAAKEFIAWLMNT-NH2 [Glucagon Analog D]
EC50 (cAMP luciferase reporter) [1]: 0.85 nM
EC50 (cAMP luciferase reporter) [2]: 0.02 nM

B1: Glucagon Analog 29 (peptide)
peptide: HSQGTFTSDKSKYLDERAAQDFVC(PEG 40 kDa)WLLDT-NH2
modifications: not fully specified (residue 10); also: Lys10 acylated, acyl group not given here
EC50 (cAMP luciferase reporter) [5]: 0.085 nM
EC50 (cAMP luciferase reporter) [6]: 0.084 nM
% Relative Activity vs native glucagon [7]: 40%
EC50 (cAMP luciferase reporter) [7]: 0.085 nM
% Relative Activity vs native GLP-1 [8]: 43%
EC50 (cAMP luciferase reporter) [8]: 0.084 nM
EC50 (cAMP luciferase reporter) [9]: 0.085 nM
percent in parentheses (not explained) [9]: 74%
EC50 (cAMP luciferase reporter) [10]: 0.084 nM
percent in parentheses (not explained) [10]: 16%

HSQGTFTSDYSKYLDKRRAEDFVQWLMNT (not fully specified; also: further groups not given here) [Peptide 3]
EC50 (cAMP luciferase reporter) [11]: 0.34 nM
EC50 (cAMP luciferase reporter) [12]: 1.15 nM

HSQGTFTSDYSKYLDEQAAKEFIAWLMNT-NH2 (not fully specified (residue 2)) [Glucagon Analog B]
EC50 (cAMP luciferase reporter) [1]: 0.072 nM
EC50 (cAMP luciferase reporter) [2]: 0.014 nM

B2: Glucagon Analog 24 (peptide)
peptide: HSQGTFTSDYSKYLDEKRAKEFVC(PEG 40 kDa)WLMNT-NH2
modifications: also: DPP-IV-protecting residue at position 1 or 2 not given here, non-covalent salt bridge Lys17/Glu21
% Relative Activity vs native glucagon [13]: 7%
EC50 (cAMP luciferase reporter) [13]: 0.676 nM
% Relative Activity vs native GLP-1 [14]: 5%
EC50 (cAMP luciferase reporter) [14]: 1.58 nM

B3: Glucagon Analog 20 (peptide)
peptide: HSQGTFTSDYSKYLDEKRAKEFVQWLMNT-NH2
modifications: also: DPP-IV-protecting residue at position 1 or 2: D-Ser, Aib or Dmia, salt bridge Lys17/Glu21 plus salt bridge 16/20 or α,α-disubstituted residue at 16
EC50 (cAMP luciferase reporter) [13]: 0.054 nM
EC50 (cAMP luciferase reporter) [14]: 0.284 nM
EC50 (cAMP luciferase reporter) [9]: 0.054 nM
EC50 (cAMP luciferase reporter) [10]: 0.284 nM

HSQKTFTEDYSKYLDSRRAQDFVQWLMNT (not fully specified; also: further groups not given here) [Peptide 17]
EC50 (cAMP luciferase reporter) [11]: 862 nM
EC50 (cAMP luciferase reporter) [12]: 148 nM

HSQGTFTSDYSKYLDEEAVRLFIEWLMNT-NH2 (not fully specified (residue 2)) [Glucagon Analog A]
EC50 (cAMP luciferase reporter) [1]: 0.061 nM
EC50 (cAMP luciferase reporter) [2]: 0.009 nM
